{
  "source": "patent US20260232824A1",
  "about": "(published 2026)",
  "experiment_in_all_cases": "SPR; antibody captured in bivalent format",
  "key": {"[1]": {"target": "T1, human CD180 extracellular domain (ECD) HIS-tagged protein (Sino Biological, 11370-H08H) (human, UniProt Q99467 24-626)", "T1 chain": "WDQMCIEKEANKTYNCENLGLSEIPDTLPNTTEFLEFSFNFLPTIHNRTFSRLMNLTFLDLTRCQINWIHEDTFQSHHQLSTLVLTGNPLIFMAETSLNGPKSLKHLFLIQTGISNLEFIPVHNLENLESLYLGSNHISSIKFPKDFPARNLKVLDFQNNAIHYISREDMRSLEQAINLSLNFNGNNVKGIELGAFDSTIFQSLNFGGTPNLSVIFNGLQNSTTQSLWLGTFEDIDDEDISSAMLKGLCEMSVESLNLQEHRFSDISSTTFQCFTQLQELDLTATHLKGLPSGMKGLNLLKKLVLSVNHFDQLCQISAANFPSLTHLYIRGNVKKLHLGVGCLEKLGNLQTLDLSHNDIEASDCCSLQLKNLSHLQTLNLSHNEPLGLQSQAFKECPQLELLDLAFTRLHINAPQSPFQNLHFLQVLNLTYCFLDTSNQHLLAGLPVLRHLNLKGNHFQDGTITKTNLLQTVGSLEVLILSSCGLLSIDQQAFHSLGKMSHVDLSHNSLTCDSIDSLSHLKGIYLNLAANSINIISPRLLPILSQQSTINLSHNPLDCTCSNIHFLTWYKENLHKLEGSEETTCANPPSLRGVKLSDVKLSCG"}, "[2]": {"target": "T2, His-tagged rhesus CD180 from Creative Biomart (CD180-1598R) (rhesus, UniProt F7GX75 24-626)", "T2 chain": "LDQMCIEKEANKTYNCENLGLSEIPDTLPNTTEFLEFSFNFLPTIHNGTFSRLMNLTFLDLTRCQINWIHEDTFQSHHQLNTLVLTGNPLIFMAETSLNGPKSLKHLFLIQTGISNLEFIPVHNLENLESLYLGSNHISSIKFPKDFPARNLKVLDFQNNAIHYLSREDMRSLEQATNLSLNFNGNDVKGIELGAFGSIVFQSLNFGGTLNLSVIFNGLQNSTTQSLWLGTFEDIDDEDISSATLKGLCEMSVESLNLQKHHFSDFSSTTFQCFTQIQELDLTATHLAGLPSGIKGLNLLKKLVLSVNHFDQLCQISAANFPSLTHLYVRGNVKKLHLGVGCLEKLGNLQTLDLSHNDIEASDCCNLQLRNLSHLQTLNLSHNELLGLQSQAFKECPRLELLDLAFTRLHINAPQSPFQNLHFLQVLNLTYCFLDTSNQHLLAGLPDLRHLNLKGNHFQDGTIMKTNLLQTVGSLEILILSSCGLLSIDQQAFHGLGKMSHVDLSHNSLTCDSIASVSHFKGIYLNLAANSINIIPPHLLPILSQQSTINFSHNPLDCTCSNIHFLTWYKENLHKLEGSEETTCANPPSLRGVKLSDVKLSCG"}, "[3]": {"target": "T3, human CD180 extracellular domain (ECD) HIS-tagged protein (Creative Biomart, CD180-3900H) (human, UniProt Q99467 24-626)", "T3 chain": "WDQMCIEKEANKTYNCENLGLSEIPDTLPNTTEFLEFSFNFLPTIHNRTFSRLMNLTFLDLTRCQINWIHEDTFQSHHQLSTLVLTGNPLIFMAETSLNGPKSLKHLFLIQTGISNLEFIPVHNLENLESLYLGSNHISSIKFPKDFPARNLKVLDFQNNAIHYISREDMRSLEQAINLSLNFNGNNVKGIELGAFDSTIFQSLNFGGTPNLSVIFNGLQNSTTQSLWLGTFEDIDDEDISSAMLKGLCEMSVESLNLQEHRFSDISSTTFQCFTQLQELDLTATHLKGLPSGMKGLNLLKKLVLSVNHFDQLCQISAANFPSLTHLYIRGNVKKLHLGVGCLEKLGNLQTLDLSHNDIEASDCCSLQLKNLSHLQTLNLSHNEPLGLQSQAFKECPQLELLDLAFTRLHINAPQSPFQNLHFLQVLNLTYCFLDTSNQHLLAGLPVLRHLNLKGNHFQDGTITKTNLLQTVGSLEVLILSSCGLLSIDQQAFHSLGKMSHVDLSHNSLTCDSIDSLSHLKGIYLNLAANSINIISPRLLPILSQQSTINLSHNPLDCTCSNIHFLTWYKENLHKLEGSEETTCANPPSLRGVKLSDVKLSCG"}},
  "data": [
    {"binder": "Ab-006 (antibody, V domains shown) VH: EVQLVESGGGLVKPGGSLRLSCTASGFTFDDYDMTWVRQAPGKGLEWVSGINWNGGNTDYADSVKGRFTISRDNTKNSLYLQMNSLRAEDTALYYCARKGRDIVVVKGFYYHYYYMDVWGKGITVTVSS VL: not shown", "values": [
      {"measurement": "Kd", "setting": "[1]", "value": 6.8, "unit": "nM"},
      {"measurement": "Kd", "setting": "[2]", "value": 0.4, "unit": "nM"},
      {"measurement": "Kd", "setting": "[3]", "value": 12, "unit": "nM"}
    ]},
    {"binder": "Ab-007 (antibody, V domains shown) VH: EVQLVESGGGVVRPGGSLRLSCAASGFTFDDYAMSWVRQAPGKGLEWVSDINWNGGTTSYADSVKGRFTISRDNAKNSLFLQMNSLRAEDTALYYCARKGRDTVVVKGYYYFSYYMDVWGKGSTVTVSS VL: not shown", "values": [
      {"measurement": "Kd", "setting": "[1]", "value": 3.4, "unit": "nM"},
      {"measurement": "Kd", "setting": "[2]", "value": 0.05, "unit": "nM"},
      {"measurement": "Kd", "setting": "[3]", "value": 4.7, "unit": "nM"}
    ]}
  ]
}
